Data on two molecules can be found in paper PMC9369236, “Unravelling the Adaptation Mechanisms to High Pressure in Proteins” (International Journal of Molecular Sciences, 2022).

Series [1] deals with Phosphomannose isomerase from Thermococcus kodakarensis, expressed from pET-16b (Thermococcus kodakarensis). Kind of series: SEC; AKTA FPLC, XK50-60 column with 1 L Superdex 75 Prep-Grade resin, calibrated with the GE Healthcare Low Molecular Weight kit; elution at double the expected MW; self-association (dimer). (SEC sorts molecules by how far they enter the pores of the column.)

Series [2] deals with the molecule itself. Described as above.

A word on the stoichiometry N: it is a count of units in the complex or per binding partner. “Phosphomannose isomerase from Thermococcus kodakarensis, expressed from pET-16b (enzyme)”: the stoichiometry N in series [1] amounted to 2.

B1: Phosphomannose isomerase from Thermococcus barophilus, expressed from pET-16b (enzyme)
chain: MKAEIKEFIDRGTYRKAPLFEGELPEGSYAQIVEIKPKQTVPKHYHEKQYELFYIISGQAKLGIEEREYDAKPGDIFLVKPKTVHWVVNKKEEPFRLFVIKLNYFGDDSVWLE
notes: Phosphomannose isomerase (PMI) of Thermococcus barophilus, gene TERMP_00744, synthetic codon-optimized gene; Construct for neutron scattering; removal of the tag is not mentioned; also called Tba PMI; PMI
B1: in series [2], the “stoichiometry N” value was determined as 2.
